Source: patent US20250011468A1 (Novo Nordisk, published 2025)

B1: mAb4-0004 (monovalent one-armed variant of mAb0-1998) (antibody, V domains shown)
VH: EVQLVESGGGLVQPGRSLKLSCAASGFTFDDYAMHWVRQVPGKGLEWVSGISWNGDNIGYVDSVKGRFTISRDNAKNSLYLQLNSLRAEDTALYYCVKSYGSGSFYNAFDSWGQGTLVTVSS
VL: DIQMTQSPSTLSASAGDRVTITCRASQSISSWLAWYQQKPGKAPKFLIYKASSLESGVPSRFSGSGSGTEFSLTISSLQPDDFATYYCLEYSSYIRTFGQGTKVEIK
B2: mAb4-0673 (monovalent one-armed variant of mAb0-1886) (antibody, V domains shown)
VH: EVQLVQSGAEVKKPGESLRISCKGSGYSFTSYWIGWVRQMPGKGLEWMGMIDPSDSYTDYGPSFRGHVTISADKSISTAYLQWSSLKASDTAMYYCARVRIMEGAFDIWGQGTMVTVSS
VL: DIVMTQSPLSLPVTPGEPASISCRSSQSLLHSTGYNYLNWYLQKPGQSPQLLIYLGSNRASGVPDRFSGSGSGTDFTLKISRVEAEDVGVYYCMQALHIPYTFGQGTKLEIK

Assays:
[1] = molecular target: T1, wild-type FIX with C-terminal His-tag (human, UniProt P00740 47-461); assay: SPR (Biacore T200), His-tagged FIX captured by anti-His antibody, one-armed antibody as analyte; % of wild-type binding
T1 construct: Secreted mature FIX from expi293F cells; also called WT
Description: (§1) SPR analyses were carried out on Biacore 4000 or Biacore T200 instruments (Biacore AB, Uppsala, Sweden). For the experiments on the T200 instrument the following conditions were applied: measurements were conducted at a temperature of 25° C. Anti-His antibody at 25 μg/ml (R&D Systems, catalogue #MAB050) was immobilized on a CM5 sensor chip using standard amine coupling chemistry. […] at 25 nM were injected at a flow rate of 10 μl/min for 1 min and were captured via their His-tag by the immobilized anti-His antibody. Subsequently, 200 nM (with 4-fold serial dilutions), 1600 nM (with 3-fold serial dilutions), and 2000 nM (with 3-fold serial dilution) of mAb4-0004, mAb3-3279 and mAb4-0673, respectively, were injected at a flow rate of 50 μl/min for 5 min to allow for binding to captured FIX variant followed by a 10 min buffer injection allowing for dissociation of the monovalent anti-FIX antibodies. The running buffer used was 20 mM Tris, 150 mM NaCl, 5 mM CaCl₂, 0.05% Tween-20, 1 mg/ml BSA, pH 7.4. This was also used for dilution of anti-FIX antibody and FIX samples. Regeneration of the chip was achieved using 10 mM Glycine pH 2.0. Binding data were analysed according to a 1:1 model using BiaEvaluation 4.1 supplied by the manufacturer (Biacore AB, Uppsala, Sweden). A similar experimental set-up was used for the Biacore 4000 instrument.

[2] = molecular target: FIX R333A with C-terminal His-tag (human, UniProt P00740 47-461); assay: SPR (Biacore T200), His-tagged FIX variant captured by anti-His antibody, one-armed antibody as analyte; % of wild-type binding
Description: as §1
(§2) A more detailed binding analysis was conducted for residues defined as epitope residues (see example 6) using the Biacore T200 instrument.

[3] = molecular target: FIX T343A with C-terminal His-tag (human, UniProt P00740 47-461); assay: as above
Description: as §1, §2

[4] = molecular target: FIX T340A with C-terminal His-tag (human, UniProt P00740 47-461); assay: as above
Description: as §1, §2

[5] = molecular target: FIX K341A with C-terminal His-tag (human, UniProt P00740 47-461); assay: as above
Description: as §1, §2

[6] = molecular target: FIX A334L with C-terminal His-tag (human, UniProt P00740 47-461); assay: as above
Description: as §1, §2

[7] = molecular target: FIX N346A with C-terminal His-tag (human, UniProt P00740 47-461); assay: as above
Description: as §1, §2

[8] = molecular target: FIX T335A with C-terminal His-tag (human, UniProt P00740 47-461); assay: as above
Description: as §1, §2

[9] = molecular target: FIX L337A with C-terminal His-tag (human, UniProt P00740 47-461); assay: as above
Description: as §1, §2

[10] = molecular target: FIX K341E with C-terminal His-tag (human, UniProt P00740 47-461); assay: as above
Description: as §1, §2

[11] = molecular target: FIX R338A with C-terminal His-tag (human, UniProt P00740 47-461); assay: as above
Description: as §1, §2

[12] = molecular target: FIX D332A with C-terminal His-tag (human, UniProt P00740 47-461); assay: as above
Description: as §1, §2

[13] = molecular target: FIX T343I with C-terminal His-tag (human, UniProt P00740 47-461); assay: as above
Description: as §1, §2

[14] = molecular target: FIX K301A with C-terminal His-tag (human, UniProt P00740 47-461); assay: as above
Description: as §1, §2

[15] = molecular target: FIX D332S with C-terminal His-tag (human, UniProt P00740 47-461); assay: as above
Description: as §1, §2

[16] = molecular target: FIX S339L with C-terminal His-tag (human, UniProt P00740 47-461); assay: as above
Description: as §1, §2

[17] = molecular target: FIX N346Q with C-terminal His-tag (human, UniProt P00740 47-461); assay: as above
Description: as §1, §2

FIX L337A with C-terminal His-tag, sequence (P00740 other isoform, or with tags, fused parts or gaps L337A L337A limits assumed): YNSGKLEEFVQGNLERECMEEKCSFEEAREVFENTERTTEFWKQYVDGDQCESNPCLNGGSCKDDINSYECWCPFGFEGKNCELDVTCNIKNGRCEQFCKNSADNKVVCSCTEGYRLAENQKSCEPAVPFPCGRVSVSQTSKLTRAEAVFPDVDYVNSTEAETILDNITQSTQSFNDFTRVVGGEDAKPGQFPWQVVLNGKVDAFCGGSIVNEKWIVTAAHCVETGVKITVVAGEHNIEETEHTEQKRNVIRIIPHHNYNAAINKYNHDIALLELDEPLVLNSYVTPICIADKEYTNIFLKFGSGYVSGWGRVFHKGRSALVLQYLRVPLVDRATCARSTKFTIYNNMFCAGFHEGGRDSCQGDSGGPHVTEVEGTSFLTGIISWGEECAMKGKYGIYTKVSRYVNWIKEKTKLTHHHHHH
FIX D332A with C-terminal His-tag, sequence (P00740 other isoform, or with tags, fused parts or gaps D332A D332A limits assumed): as the sequence (P00740 other isoform, or with tags, fused parts or gaps L337A L337A limits assumed) above, with D332A, A337L counted along it
FIX N346A with C-terminal His-tag, sequence (P00740 other isoform, or with tags, fused parts or gaps N346A N346A limits assumed): as the sequence (P00740 other isoform, or with tags, fused parts or gaps L337A L337A limits assumed) above, with A337L, N346A counted along it
FIX R338A with C-terminal His-tag, sequence (P00740 other isoform, or with tags, fused parts or gaps R338A R338A limits assumed): as the sequence (P00740 other isoform, or with tags, fused parts or gaps L337A L337A limits assumed) above, with A337L, R338A counted along it
FIX K301A with C-terminal His-tag, sequence (P00740 other isoform, or with tags, fused parts or gaps K301A K301A limits assumed): as the sequence (P00740 other isoform, or with tags, fused parts or gaps L337A L337A limits assumed) above, with K301A, A337L counted along it
FIX T343I with C-terminal His-tag, sequence (P00740 other isoform, or with tags, fused parts or gaps T343I T343I limits assumed): as the sequence (P00740 other isoform, or with tags, fused parts or gaps L337A L337A limits assumed) above, with A337L, T343I counted along it
T1 sequence (P00740 other isoform, or with tags, fused parts or gaps limits assumed): as the sequence (P00740 other isoform, or with tags, fused parts or gaps L337A L337A limits assumed) above, with A337L counted along it
FIX R333A with C-terminal His-tag, sequence (P00740 other isoform, or with tags, fused parts or gaps R333A R333A limits assumed): as the sequence (P00740 other isoform, or with tags, fused parts or gaps L337A L337A limits assumed) above, with R333A, A337L counted along it
FIX S339L with C-terminal His-tag, sequence (P00740 other isoform, or with tags, fused parts or gaps S339L S339L limits assumed): as the sequence (P00740 other isoform, or with tags, fused parts or gaps L337A L337A limits assumed) above, with A337L, S339L counted along it
FIX K341E with C-terminal His-tag, sequence (P00740 other isoform, or with tags, fused parts or gaps K341E K341E limits assumed): as the sequence (P00740 other isoform, or with tags, fused parts or gaps L337A L337A limits assumed) above, with A337L, K341E counted along it
FIX T340A with C-terminal His-tag, sequence (P00740 other isoform, or with tags, fused parts or gaps T340A T340A limits assumed): as the sequence (P00740 other isoform, or with tags, fused parts or gaps L337A L337A limits assumed) above, with A337L, T340A counted along it
FIX T335A with C-terminal His-tag, sequence (P00740 other isoform, or with tags, fused parts or gaps T335A T335A limits assumed): as the sequence (P00740 other isoform, or with tags, fused parts or gaps L337A L337A limits assumed) above, with T335A, A337L counted along it
FIX A334L with C-terminal His-tag, sequence (P00740 other isoform, or with tags, fused parts or gaps A334L A334L limits assumed): as the sequence (P00740 other isoform, or with tags, fused parts or gaps L337A L337A limits assumed) above, with A334L, A337L counted along it
FIX K341A with C-terminal His-tag, sequence (P00740 other isoform, or with tags, fused parts or gaps K341A K341A limits assumed): as the sequence (P00740 other isoform, or with tags, fused parts or gaps L337A L337A limits assumed) above, with A337L, K341A counted along it
FIX T343A with C-terminal His-tag, sequence (P00740 other isoform, or with tags, fused parts or gaps T343A T343A limits assumed): as the sequence (P00740 other isoform, or with tags, fused parts or gaps L337A L337A limits assumed) above, with A337L, T343A counted along it
FIX D332S with C-terminal His-tag, sequence (P00740 other isoform, or with tags, fused parts or gaps D332S D332S limits assumed): as the sequence (P00740 other isoform, or with tags, fused parts or gaps L337A L337A limits assumed) above, with D332S, A337L counted along it
FIX N346Q with C-terminal His-tag, sequence (P00740 other isoform, or with tags, fused parts or gaps N346Q N346Q limits assumed): as the sequence (P00740 other isoform, or with tags, fused parts or gaps L337A L337A limits assumed) above, with A337L, N346Q counted along it

| Binder | Binding (%) relative to wild-type [1] [%] | Binding (%) relative to wild-type [2] [%] | Binding (%) relative to wild-type [3] [%] | Binding (%) relative to wild-type [4] [%] | Binding (%) relative to wild-type [5] [%] | Binding (%) relative to wild-type [6] [%] | Binding (%) relative to wild-type [7] [%] | Binding (%) relative to wild-type [8] [%] | Binding (%) relative to wild-type [9] [%] | Binding (%) relative to wild-type [10] [%] | Binding (%) relative to wild-type [11] [%] | Binding (%) relative to wild-type [12] [%] | Binding (%) relative to wild-type [13] [%] | Binding (%) relative to wild-type [14] [%] | Binding (%) relative to wild-type [15] [%] | Binding (%) relative to wild-type [16] [%] | Binding (%) relative to wild-type [17] [%] |
| --- | --- | --- | --- | --- | --- | --- | --- | --- | --- | --- | --- | --- | --- | --- | --- | --- | --- |
| B1 | 100 | 66 | 38 | 37 | 21 | 51 | 73 | 62 | 52 | 2 | 2 | 50 | 48 | 66 | 66 | 66 |  |
| B2 | 100 | 4 | 63 | 67 | 96 | 44 | 51 | 71 | 7 | 53 | 3 | 17 | 90 | 93 |  | 73 | 94 |
